This is an account of results in patent KR20220167207A.

Experiment [1] concerns the target CADM1 on small cell lung cancer cell lines H146 and H69 (human) (UniProt Q9BY67). Description: flow cytometry, PE anti-HA antibody alone (control) on H146 cells. A general note: In flow cytometry, cells or beads pass a laser one at a time.
Experiment [2] has the same target. The experiment in a line: flow cytometry, PE anti-HA antibody alone (control) on H69 cells.
The target in experiment [3] is comparison structure: the same structure without the CADM1 peptide (Myc tag, hinge, transmembrane domain, GFP) on cells. The experiment in a line: flow cytometry, PE anti-HA antibody alone (control) on cells with the structure without the peptide.
For experiment [4], the target named is CADM1 peptide expressed on SBC-5 small cell lung cancer cells (CADM1-SBC-5; peptide - transmembrane domain - GFP) (human). Description: flow cytometry, PE anti-HA antibody alone (control) on SBC-5 cells expressing the CADM1 peptide.
Experiment [5] has as its target T1, CADM1 peptide structure expressed on cells (CADM1 peptide, Myc tag, hinge, transmembrane domain, GFP) (human).
T1 sequence: DSRAGEEGSIRAVDH
Description: flow cytometry, PE anti-HA antibody alone (control) on cells with the CADM1 peptide structure.

Turning to “PE-conjugated HA antibody (16B12 clone, Biolegend, Cat No. 901518)”, the 결합력 % in experiment [1] was found to be 2.1%; in experiment [2] it was 2.2%; in experiment [3], 0.1%; in experiment [4], 0.3%; in experiment [5], 0%.
